# Data reported in publication PMC10359635, “Cas1–Cas2 physically and functionally interacts with DnaK to modulate CRISPR Adaptation”.
# T1: Cas1 (Escherichia coli, UniProt Q46896 1-305)
# T1 sequence: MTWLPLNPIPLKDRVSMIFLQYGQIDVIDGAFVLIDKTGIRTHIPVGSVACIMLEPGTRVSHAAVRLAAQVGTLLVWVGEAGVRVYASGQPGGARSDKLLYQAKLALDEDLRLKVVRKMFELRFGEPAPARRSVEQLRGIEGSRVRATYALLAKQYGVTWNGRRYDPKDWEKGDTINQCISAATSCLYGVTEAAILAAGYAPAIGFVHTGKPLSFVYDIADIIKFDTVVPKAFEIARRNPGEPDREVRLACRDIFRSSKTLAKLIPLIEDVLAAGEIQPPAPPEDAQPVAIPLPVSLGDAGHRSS
# B1: Fork (flayed duplex MW12/MW14) (dsDNA)
# DNA 1: GTCGGATCCTCTAGACAGCTCCATGATCACTGGCACTGGTAGAATTCGGC
# DNA 2: CAACGTCATAGACGATTACATTGCTACATGGAGCTGTCTAGAGGATCCGA
# Key:
# [1] = target: DnaK S427P (Escherichia coli (K-12 MG1655), UniProt P0A6Y8 1-638, S427P); test: EMSA; EMSA: 20 nM Cy5 fork, 20 mM Tris pH 8.0, 0.1 mg/ml BSA, 7% glycerol (25% after DnaK addition); proteins diluted in 20 mM Tris pH 8.0, 100 mM NaCl, 1 mM DTT; Cas1 preincubated 5 min, then 25 min at 37 C; 5% native acrylamide gel; conditions: protein: recombinant; tags: N-terminal 6xHis; label: 5'-Cy5 on MW14; fork: 24 bp duplex 1:2-25 2:27-50; 3' arm of strand 1 25 nt, 5' arm of strand 2 26 nt; 1 nt 5' overhang on strand 1
# [2] = target: T1, Cas1; test: EMSA; mixed with Cy5-ssDNA decoy; aggregates in wells at highest Cas1; EMSA: 20 nM Cy5 fork, 20 mM Tris pH 8.0, 0.1 mg/ml BSA, 7% glycerol (25% after DnaK addition); proteins diluted in 20 mM Tris pH 8.0, 100 mM NaCl, 1 mM DTT; Cas1 preincubated 5 min, then 25 min at 37 C; 5% native acrylamide gel; conditions: protein: recombinant; tags: C-terminal Strep-tag II; chain copies: 2; label: 5'-Cy5 on MW14; fork: 24 bp duplex 1:2-25 2:27-50; 3' arm of strand 1 25 nt, 5' arm of strand 2 26 nt; 1 nt 5' overhang on strand 1
# [3] = target: DnaK (Escherichia coli (K-12 MG1655), UniProt P0A6Y8 1-638); test: EMSA; mixed with Cy5-ssDNA; EMSA: 20 nM Cy5 fork, 20 mM Tris pH 8.0, 0.1 mg/ml BSA, 7% glycerol (25% after DnaK addition); proteins diluted in 20 mM Tris pH 8.0, 100 mM NaCl, 1 mM DTT; Cas1 preincubated 5 min, then 25 min at 37 C; 5% native acrylamide gel; conditions: protein: recombinant; tags: N-terminal 6xHis; label: 5'-Cy5 on MW14; fork: 24 bp duplex 1:2-25 2:27-50; 3' arm of strand 1 25 nt, 5' arm of strand 2 26 nt; 1 nt 5' overhang on strand 1
binder,measurement,setting,value
B1,binding result,[1],no binding
same,binding result,[2],binds
same,binding result,[3],no binding
